First the molecules themselves.
B1: TBLR1-LgBiT wild type [not stated] / SETD5-SmBiT [not stated] (parent complex)
chain 1: MSISSDEVNFLVYRYLQESGFSHSAFTFGIESHISQSNINGALVPPAALISIIQKGLQYVEAEVSINEDGTLFDGRPIESLSLIDAVMPDVVQTRQQAYRDKLAQQQAAAAAAAAAAASQQGSAKNGENTANGEENGAHTIANNHTDMMEVDGDVEIPPNKAVVLRGHESEVFICAWNPVSDLLASGSGDSTARIWNLSENSTSGSTQLVLRHCIREGGQDVPSNKDVTSLDWNSEGTLLATGSYDGFARIWTKDGNLASTLGQHKGPIFALKWNKKGNFILSAGVDKTTIIWDAHTGEAKQQFPFHSAPALDVDWQSNNTFASCSTDMCIHVCKLGQDRPIKTFQGHTNEVNAIKWDPTGNLLASCSDDMTLKIWSMKQDNCVHDLQAHNKEIYTIKWSPTGPGTNNPNANLMLASASFDSTVRLWDVDRGICIHTLTKHQEPVYSVAFSPDGRYLASGSFDKCVHIWNTQTGALVHSYRGTGGIFEVCWNAAGDKVGASASDGSVCVLDLRK
chain 2: MSIAIPLGVTTSDTSYSDMAAGSDPESVEASPAVNEKSVYSTHNYGTTQRHGCRGLPYATIIPRSDLNGLPSPVEERCGDSPNSEGETVPTWCPCGLSQDGFLLNCDKCRGMSRGKVIRLHRRKQDNISGGDSSATESWDEELSPSTVLYTATQHTPTSITLTVRRTKPKKRKKSPEKGRAAPKTKKIKNSPSEAQNLDENTTEGWENRIRLWTDQYEEAFTNQYSADVQNALEQHLHSSKEFVGKPTILDTINKTELACNNTVIGSQMQLQLGRVTRVQKHRKILRAARDLALDTLIIEYRGKVMLRQQFEVNGHFFKKPYPFVLFYSKFNGVEMCVDARTFGNDARFIRRSCTPNAEVRHMIADGMIHLCIYAVSAITKDAEVTIAFDYEYSNCNYKVDCACHKGNRNCPIQKRNPNATELPLLPPPPSLPTIGAETRRRKARRKELEMEQQNEASEENNDQQSQEVPEKVTVSSDHEEVDNPEEKPEEEKEEVIDDQENLAHSRRTREDRKVEAIMHAFENLEKRKKRRDQPLEQSNSDVEITTTTSETPVGEETKTEAPESEVSNSVSNVTIPSTPQSVGVNTRRSSQAGDIAAEKLVPKPPPAKPSRPRPKSRISRYRTSSAQRLKRQKQANAQQAELSQAALEEGGSNSLVTPTEAGSLDSSGENRPLTGSDPTVVSITGSHVNRAASKYPKTKKYLVTEWLNDKAEKQECPVECPLRITTDPTVLATTLNMLPGLIHSPLICTTPKHYIRFGSPFIPERRRRPLLPDGTFSSCKKRWIKQALEEGMTQTSSVPQETRTQHLYQSNENSSSSSICKDNADLLSPLKKWKSRYLMEQNVTKLLRPLSPVTPPPPNSGSKSPQLATPGSSHPGEEECRNGYSLMFSPVTSLTTASRCNTPLQFELCHRKDLDLAKVGYLDSNTNSCADRPSLLNSGHSDLAPHPSLGPTSETGFPSRSGDGHQTLVRNSDQAFRTEFNLMYAYSPLNAMPRADGLYRGSPLVGDRKPLHLDGGYCSPAEGFSSRYEHGLMKDLSRGSLSPGGERACEGVPSAPQNPPQRKKVSLLEYRKRKQEAKENSAGGGGDSAQSKSKSAGAGQGSSNSVSDTGAHGVQGSSARTPSSPHKKFSPSHSSMSHLEAVSPSDSRGTSSSHCRPQENISSRWMVPTSVERLREGGSIPKVLRSSVRVAQKGEPSPTWESNITEKDSDPADGEGPETLSSALSKGATVYSPSRYSYQLLQCDSPRTESQSLLQQSSSPFRGHPTQSPGYSYRTTALRPGNPPSHGSSESSLSSTSYSSPAHPVSTDSLAPFTGTPGYFSSQPHSGNSTGSNLPRRSCPSSAASPTLQGPSDSPTSDSVSQSSTGTLSSTSFPQNSRSSLPSDLRTISLPSAGQSAVYQASRVSAVSNSQHYPHRGSGGVHQYRLQPLQGSGVKTQTGLS

The variants in the assay derive from B1. In words: NanoLuc complementation assay; n = 6–7 independent transfections per TBLR1 mutant; read off a plot.
On to chain 1 MSISSDEVNFLVYRYLQESGFSHSAFTFGIESHISQSNINGALVPPAALISIIQKGLQYVEAEVSINEDGTLFDGRPIESLSLIDAVMPDVVQTRQQAYRDKLAQQQAAAAAAAAAAASQQGSAKNGENTANGEENGAHTIANNHTDMMEVDGDVEIPPNKAVVLRGHESEVFICAWNPVSDLLASGSGDSTARIWNLSENSTSGSTQLVLRHCIREGGQDVPSNKDVTSLDWNSEGTLLATGSYDGFARIWTKDGNLASTLGQHKGPIFALKWNKKGNFILSAGVDKTTIIWDAHTGEAKQQFPFHSAPALDVDWQSNNTFASCSTDMCIHVCKLGQDRPIKTFQGHTNEVNAIKWDPTGNLLASCSDDMTLKIWSMKQDNCVHDLQAHNKEIYTIKWSPTGPGTNNPNANLMLASASFDSTVRLWDVDRGICIHTLTKHQEPVDSVAFSPDGRYLASGSFDKCVHIWNTQTGALVHSYRGTGGIFEVCWNAAGDKVGASASDGSVCVLDLRK [chain 1 Y446D], for which the ratio to parent was about 1.1.
Regarding chain 1 MSISSDEVNFLVYRYLQESGFSHSAFTFGIESHISQSNINGALVPPAALISIIQKGLQYVEAEVSINEDGTLFDGRPIESLSLIDAVMPDVVQTRQQAYRDKLAQQQAAAAAAAAAAASQQGSAKNGENTANGEENGAHTIANNHTDMMEVDGDVEIPPNKAVVLRGHESEVFICAWNPVSDLLASGSGDSTARIWNLSENSTSGSTQLVLRHCIREGGQDVPSNKDVTSLDWNSEGTLLATGSYDGFARIWTKDGNLASTLGQHKGPIFALKWNKKGNFILSAGVDKTTIIWDAHTGEAKQQFPFHSAPALDVDWQSNNTFASCSTDMCIHVCKLGQDRPIKTFQGHTNEVNAIKWDPTGNLLASCSDDMTLKIWSMKQDNCVHDLQAHNKEIYTIKWSPTGPGTNNPNANLMLASASFDSTVRLWDVDRGICIHTLTKHQEPVYSVAFSPDGRYLARGSFDKCVHIWNTQTGALVHSYRGTGGIFEVCWNAAGDKVGASASDGSVCVLDLRK [chain 1 S459R], the ratio to parent was about 0.06.
As for chain 1 MSISSDEVNFLVYRYLQESGFSHSAFTFGIESHISQSNINGALVPPAALISIIQKGLQYVEAEVSINEDGTLFDGRPIESLSLIDAVMPDVVQTRQQAYRDKLAQQQAAAAAAAAAAASQQGSAKNGENTANGEENGAHTIANNHTDMMEVDGDVEIPPNKAVVLRGHESEVFICAWNPVSDLLASGSGDSTARIWNLSENSTSGSTQLVLRHCIREGGQDVPSNKDVTSLDWNSEGTLLATGSYDGFARIWTKDGNLASTLGQHKGPIFALKWNKKGNFILSAGVDKTTIIWDAHTGEAKQQFPFHSAPALDVDWQSNNTFASCSTDMCIHVCKLGQDRPIKTFQGHTNEVNAIKWDPTGNLLASCSEDMTLKIWSMKQDNCVHDLQAHNKEIYTIKWSPTGPGTNNPNANLMLASASFDSTVRLWDVDRGICIHTLTKHQEPVYSVAFSPDGRYLASGSFDKCVHIWNTQTGALVHSYRGTGGIFEVCWNAAGDKVGASASDGSVCVLDLRK [chain 1 D369E], the figure is about 0.15.
chain 1 MSISSDEVNFLVYRYLQESGFSHSAFTFGIESHISQSNINGALVPPAALISIIQKGLQYVEAEVSINEDGTLFDGRPIESLSLIDAVMPDVVQTRQQAYRDKLAQQQAAAAAAAAAAASQQGSAKNGENTANGEENGAHTIANNHTDMMEVDGDVEIPPNKAVVLRGHESEVFICAWNPVSDLLASGSGDSTARIWNLSENSTSGSTQLVLRHCIREGGQDVPSNKDVTSLDWNSEGTLLATGSYDGFARIWTKDGNLASTLGQHKGPIFALKWNKKGNFILSAGVDKTTIIWDAHTGEAKQQFPFHSAPALDVDWQSNNTFASCSTGMCIHVCKLGQDRPIKTFQGHTNEVNAIKWDPTGNLLASCSDDMTLKIWSMKQDNCVHDLQAHNKEIYTIKWSPTGPGTNNPNANLMLASASFDSTVRLWDVDRGICIHTLTKHQEPVYSVAFSPDGRYLASGSFDKCVHIWNTQTGALVHSYRGTGGIFEVCWNAAGDKVGASASDGSVCVLDLRK [chain 1 D328G]: the ratio to parent was about 0.6.
As for chain 1 MSISSDEVNFLVYRYLQESGFSHSAFTFGIESHISQSNINGALVPPAALISIIQKGLQYVEAEVSINEDGTLFDGRPIESLSLIDAVMPDVVQTRQQAYRDKLAQQQAAAAAAAAAAASQQGSAKNGENTANGEENGAHTIANNHTDMMEVDGDVEIPPNKAVVLRGHESEVFICAWNPVSDLLASGSGDSTARIWNLSENSTSGSTQLVLRHCIREGGQDVPSNKDVTSLDWNSEGTLLATGSYDGFARIWTKDGNLASTLGQHKGPIFALKWNKKGNFILSAGVDKTTIIWDAHTGEAKQQFPFHSAPPLDVDWQSNNTFASCSTDMCIHVCKLGQDRPIKTFQGHTNEVNAIKWDPTGNLLASCSDDMTLKIWSMKQDNCVHDLQAHNKEIYTIKWSPTGPGTNNPNANLMLASASFDSTVRLWDVDRGICIHTLTKHQEPVYSVAFSPDGRYLASGSFDKCVHIWNTQTGALVHSYRGTGGIFEVCWNAAGDKVGASASDGSVCVLDLRK [chain 1 A311P], the figure is about 0.55.
The figure for chain 1 MSISSDEVNFLVYRYLQESGFSHSAFTFGIESHISQSNINGALVPPAALISIIQKGLQYVEAEVSINEDGTLFDGRPIESLSLIDAVMPDVVQTRQQAYRDKLAQQQAAAAAAAAAAASQQGSAKNGENTANGEENGAHTIANNHTDMMEVDGDVEIPPNKAVVLRGHESEVFICAWNPVSDLLASGSGDSTARIWNLSENSTSGSTQLVLRHCIREGGQDVPSNKDVTSLDWNSEGTLLATGSYDGFARIWTKDGNLASTLGQHKGPIFALKWNKKGNFILSAGVDKTTIIWDAHTGEAKQQFPFHSAPALDVDWQSNNTFASCSTDMCIHVCKLGQDRPIKTFQGHTNEVNAIKWDPTGNLLASCSDDMTLKIWSMKQDNCVHDLQAHNKEICTIKWSPTGPGTNNPNANLMLASASFDSTVRLWDVDRGICIHTLTKHQEPVYSVAFSPDGRYLASGSFDKCVHIWNTQTGALVHSYRGTGGIFEVCWNAAGDKVGASASDGSVCVLDLRK [chain 1 Y395C] is about 0.87.

Values taken from paper PMC13385800 (2026).
